For 2 substances, IC50 (read off the curve) and Maximal inhibition of ADM bioactivity (ADM-Bioassay) (%) results are on record in patent US20140328853A1.

Assay [1] concerns the target human recombinant adrenomedullin receptor (CRLR+RAMP3) (human).
Assay [2] shares this target. This is another data set of the same source.
Assay [3] addresses ADM (human or mouse not told for the control row of Table 3). Description: cell-based or functional assay.

Read-outs that look alike come from different tables or passages of the source.

Take “hADM 22-52 (on the sheet: antagonist) (peptide)”: the IC50 (read off the curve) in assay [1] came out at 200 nM; in assay [2] it was 3000 nM.

Non specific mouse IgG (antibody) displayed a Maximal inhibition of ADM bioactivity (ADM-Bioassay) (%) in assay [3] of 0%.
